The test system of data set [1] is double stranded RNA substrate. Kind of data set: Nucleic acid unwinding activity, scintillation proximity assay. The data set is classed as biochemical. How it is done: The newly engineered single-chain recombinant His-NS4A21-32-GSGS-NS33-631 (SEQ ID NO: 4) was assayed for nucleic acid unwinding activity using a scintillation proximity assay (SPA, Amersham Life Science Inc., Arlington Height, Ill.). The unwinding activity present in this covalent His-NS4A21-32-GSGS-NS33-631 complex was compared with that of the full length His-NS31-631-NS4A1-54 complex under their corresponding optimal buffer conditions. The double stranded RNA substrate (Oligos, Etc., Inc. Wilsonville, Oreg.) used in the assay contained a template 5′-GCUCGCCCGGGGAUCCUCUAGGAAUACACGUUCGAU-3′ (SEQ ID NO: 121) annealed to a primer 5′-CUAGAGGAUCCCCGGGCGAGCCCUAUAGUGAGUCGU-3′ (complementary sequences of the template and the primer are underlined). This substrate is end-labeled with ^33P using T4 polynucleotide kinase.
The assay conditions for the covalent His-NS4A21-32-GSGS-NS33-631 complex were 100 mM MOPS [pH 7.0], 0.5 mM MgCl2, 2 mM ATP, 0.5 mM DTT, […] BSA, 2% dimethylsulfoxide (DMSO) and 1 U RNase inhibitor (5 prime→3 prime, Inc., Boulder, Colo.). For the full length His-NS31-631/NS4A1-54 complex, the assay conditions were 100 mM PIPES [pH 6.0], 1 mM MgCl2, 2 mM ATP, 0.6 mM DTT, […] BSA and 1 U RNase inhibitor. In both reactions, 0.5 nM double stranded RNA substrate in a final volume of […] was used. The reaction was carried out at 37 ∞C. for 1 h and terminated by an addition of […] of 0.5 M EDTA. The released primer was captured using […] of 100 nM biotinylated capture oligomer (5′-biotin-GCT-CGC-CCG-GGG-ATC-CTC-TAG-3′) (Gibco/BRL, Grand Island, N.Y.) (SEQ ID NO: 123) in 2×hybridization buffer (40 mM HEPES [pH 7.3], 2M NaCl, 2 mg/ml BSA) at 37 ∞C. for 1 h. The primer-oligomer complex was retained by Streptavidin coated SPA beads (SPA, Amersham Life Science Inc., Arlington Height, Ill.), filtered and washed thoroughly with wash buffer (20 mM HEPES [pH 7.3], 15 mM NaCl, 1.5 mM sodium citrate and 0.05% SDS). The amount of the released labeled primer was quantified using a TopCount reader (Packard A991200, Meriden, Conn.).
On the technique in general: SPA uses beads or plates that emit light when radiolabelled molecules are held near them.

The nature of data set [2]: ATPase activity, [a-32P]ATP hydrolysis by thin layer chromatography. The data set is classed as biochemical. How it is done:
ATPase activity of the covalent His-NS4A21-32-GSGS-NS33-631 complex (SEQ ID NO: 4) was monitored by direct measurement of [a-^32P]ATP hydrolysis using thin layer chromatography. The enzyme was incubated with 1 mM ATP mixed with [a-^32P]ATP (3000 Ci/mmol, approximately 0.5 mCi per reaction) in a reaction buffer containing 50 mM HEPES [pH 7.3], 10 mM KCl, 0.5 mM DTT, […] bovine serum albumin, fraction V (BSA), 1 mM MgCl2 in the presence or absence of 1 mM polyuridylic acid (poly U) (Pharmacia, Piscataway, N.J.) in a final volume of […]. The reaction was carried out at 37 ∞C. for 1 h and terminated by an addition of […] of 0.5 M EDTA. Half a microliter of the reaction mix was spotted onto a polyethyleneimine-cellulose sheet (SA Scientific Adsorbents Inc., Atlanta, Ga.) and developed by ascending chromatography in 0.375 M potassium phosphate buffer [pH 3.5]. The cellulose sheet was dried and quantified with a Storm 860 PhosphoImager (Molecular Dynamics, Sunnyvale, Calif.).

For data set [3], the target named is T1, helicase domain of the NS3 protein (Hepatitis C virus genotype 1b, UniProt P26663, A1092G/F1173S/K1113A/P1112Q).
T1 construct: N-terminal end of the NS3 protease (NS3 amino acids 3-631) via the linker GSGS; histidine tag followed by a thrombin site (N); made in house; host or cells: E. coli BL21(DE3)
Kind of data set: Autocleavage observed during purification. Details: species or system HCV. The source says: Also provided are NS4A-tethered forms of NS3 full-length domain. […] To prevent autocleavage of the full-length covalent complexes, the catalytic serine residue at position 139 is mutated to alanine. The amino acid sequence of one such embodiment is defined by SEQ ID NO: 15. The mutation of the full length constructs at position 139 can also be made in the NS4A-tethered forms of the NS3 catalytic domain, and can be made in combination with any of the aforementioned mutations to increase solubility and stability while preventing autocleavage. Representative embodiments are set forth in SEQ ID NOs: 5-8, 15-18 and 20.

B1: His-NS4A21-32-GSGS-NS33-631: NS4A 21-32 tethered by GSGS to full-length NS3 residues 3-631, His tag; printed SEQ ID NO: 4 (protein)
chain: MGSSHHHHHHSSGLVPRGSHMGSVVIVGRIILSGSGSITAYSQQTRGLLGCKKTSLTGRDKNQVEGEVQVVSTATQSFLATCVNGVCWTVYHGAGSKTLAGPKGPITQMYTNVDQDLVGWQAPPGARSLTPCTCGSSDLYLVTRHADVIPVRRRGDSRGSLLSPRPVSYLKGSSGGPLLCPSGHAVGIFRAAVCTRGVAKAVDFVPVESMETTMRS
modifications: His tag
In the case of B1, the “fold less complex required for similar percentage of unwound products vs full length His-NS31-631/NS4A1-54” value in data set [1] stood at 10 fold. Also, the “nucleic acid unwinding activity” value in data set [1] (FIG. 6, 37 C, 1 h, 0.5 nM dsRNA) is on record as “proportional to the concentration of enzyme”. In addition, the “product released, fold more than equivalent concentration of full length His-NS3/NS4A1-54 complex” value in data set [1] (linear range of the assay, 1-10 pM enzyme) was 5-6 fold. In addition, in data set [2] (1 mM poly U, all enzyme concentrations examined), the “increase of ATP hydrolysis in the presence of poly U” value is 8-13 fold. In addition, in data set [2] (FIG. 7, 1 mM ATP, 37 C, 1 h), the ATPase activity result is reported as “poly U dependent ATPase activity which was proportional to the concentration of the enzyme”. For the same molecule, the “ATP hydrolysis in the absence of poly U” value in data set [2] (no poly U) is recorded as “minimal”. Further, the “autocleavage in the helicase domain during purification” value in data set [3] was “a considerable amount of autocleavage”.

These data come from patent US6653127B1, “Single-chain recombinant complexes of hepatitis C virus NS3 protease and NS4A cofactor peptide” (Schering Corporation, priority 1997, dated 2003).
